± gives the uncertainty stated by the source.
Assay: amyloid nucleation score (Sup35N fusion, yeast selection) (log enrichment); library NNK1; higher = more nucleation; inactive = no reads after selection
Outline: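 Nucleation score is defined as the DiMSum log enrichment of output over input reads, with centring on the mode score of non-aggregating sequences. A minimum of 100 input reads was required for each sequence. Reads came from Illumina sequencing of plasmid inserts from psi-negative yeast expressing Sup35N fused to peptides of 20 random codons, induced with 100 μM copper sulfate for 24 hours and grown 7 days at 30°C on medium lacking adenine and uracil.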

Row | Substance | amyloid nucleation score
1 | ASSGPAIYFNGRQRTFYYSD | 1.05 ± 0.29
2 | MVDFNSRSKYSVYLSHRGKF | 1.7 ± 0.11
3 | NFMIMKSCDRSSLCHFMSYC | 7.436 ± 0.069
4 | DGRRTDWVLCNGARIRTCYD | -0.316 ± 0.44
5 | GKFSKDKILLVSYHKAF | 0.886 ± 0.39
6 | LVYGKPVNHAEGSDDSTHNG | 0.205 ± 0.6
7 | RCYYLGHVHRICGRWGWGPR | 0.37 ± 0.52
8 | FASILVFQNGSIATCAINWV | 0.694 ± 0.84
9 | NKSCDGVRLCREARKALEPC | 0.34 ± 0.52
10 | FVNIADDRRVYLILSVHGDL | 6.575 ± 0.05
11 | DAVQLMSCCMTISGPTKNRA | 0.184 ± 0.56
12 | YWDKNFHYMCVARLFIVRLC | 0.091 ± 0.7
13 | WSYLQY | -0.364 ± 0.79
14 | RNNEDGRLKDRRRGLSHGQG | -0.531 ± 0.31
15 | GVTHKDMSNDYFMGD | -0.285 ± 0.47
16 | MTVKSAPK | 0.258 ± 0.55
17 | FANFIAVMVTGTILF | inactive
18 | YSRGCTFYAKGELRDNGSYY | -0.168 ± 0.48
19 | CSAVS | 0.241 ± 0.39
20 | IYRFGFRACVDPGLRIV | inactive
21 | MCDCLPPCDSGWNFFEWGWE | -0.131 ± 0.69
22 | SFKWLGTFRYSYTKSTEHVW | -0.534 ± 1.2
23 | WYPMYQNTYRAEERVT | 0.42 ± 0.64
24 | VFWGL | 0.072 ± 0.47
25 | DTGLGVCWSAKLGYCVWGSL | 6.61 ± 0.071

Row | Substance | amyloid nucleation score
26 | FAVINSPNKAGNRITRLGTY | 0.681 ± 0.47
27 | RVAYSGEL | 0.196 ± 0.83
28 | VLMLCCMGSTRVCMTYMPDN | 6.885 ± 0.064
29 | GMYPGESSWKLEKEVIL | 0.539 ± 0.6
30 | RDFWVSRTALMGGYWCWL | -0.175 ± 0.35
31 | SEMGYPGWTGKERKRLSNWA | -0.989 ± 0.8
32 | CLTGIGKLPVGSGPV | 0.198 ± 0.77
33 | SDMYIL | 0.807 ± 0.43
34 | SYPTKLPWFGGGYNRGSMSS | -0.481 ± 0.58
35 | RHSITLFLVTVETVRACVFK | -0.714 ± 1.2
36 | YLTGVYNWGMCKTCFPRDWG | 2.65 ± 0.096
37 | WQQGLVCQI | 0.241 ± 0.37
38 | FGIPAHNLLCYGCFLNWILV | inactive
39 | SSTFCVAQYQSYWLCEVKWV | 0.086 ± 1.4
40 | TLRMGESCFKWWYQIFIQLF | 0.275 ± 0.93
41 | YNTCECFSFLTCKWLNKMDG | 2.79 ± 0.16
42 | LGFPMRSVGQI | inactive
43 | ENITPPLYNDDYRYQ | 0.305 ± 0.58
44 | LYETMTCFWMRLWSFCGSPA | -0.033 ± 0.69
45 | SIDGWNSKVKGFEFRMGGT | -0.045 ± 0.32
46 | GAFRVVSQHRASDVS | -0.116 ± 0.41
47 | HNFEFFMGQGMIFWCRLTEN | 1.24 ± 0.56
48 | PFYLEARKVDEVMSLTYIV | -0.693 ± 0.67
49 | MVKYYNTQHDGVSFIEIRLL | 0.527 ± 0.33
50 | LGWVYLHMWLGTIYYLFFVI | -1.14 ± 1

Row | Substance | amyloid nucleation score
51 | LHLYIMS | inactive
52 | THNSLFSHVSWYRCVSSGVF | 0.304 ± 1.1
53 | VWNYVYGMMWCM | 5.54 ± 0.09
54 | GPRHYKVFHSYSAFGGYSVC | 1.01 ± 0.81
55 | YVQLLMVHNAMYRSAGIFSY | 0.572 ± 0.56
56 | ILCFFRECLLDWVSLGRFIV | inactive
57 | DWLFVGGGR | 0.131 ± 0.56
58 | SFCAYFVAGIAGNIRVS | 0.098 ± 0.42
59 | FKEFTAIDKSRSVLLNLEPD | inactive
60 | CLSVLSCSVTSNYWLTS | 7.984 ± 0.056
61 | GGMIAIKHKFIYYDLELWGY | -0.94 ± 0.43
62 | AVTCSPPGPMQGLTFLFMAL | -1.11 ± 1
63 | QKLCCLSNVVLNTGP | inactive
64 | QLCGVVK | -1.07 ± 1.6
65 | VLSAYSFYVSIWYNFSFIYG | 0.689 ± 0.57
66 | GNFHQPFFLMVVFQHARAPL | 6.291 ± 0.054
67 | FPEWNSWYQRRVMAKGAHGY | 0.58 ± 1.1
68 | FRLARGVVWCPGGISC | -0.536 ± 0.42
69 | SFDRCCRGFAWISYGEQTAY | 0.219 ± 0.53
70 | KMWIRCVIGVRMLYPFARCG | -0.138 ± 0.49
71 | GMAVNGYHSLRGKVLEDVGN | -0.289 ± 0.79
72 | GPNTPSWYGCL | 0.196 ± 0.6
73 | LFLGGVIVHSQLCMTVGCCF | 6.54 ± 0.079
74 | KLVLLGNK | 0.134 ± 0.5
75 | TYFSDLVRRRRCKAGNVWFL | 1.58 ± 0.74

Row | Substance | amyloid nucleation score
76 | FIIISACSWLLSNWKTSGST | 6.974 ± 0.056
77 | EKYDGCIFEEKQMIAGAHGM | 1.15 ± 0.88
78 | WISEYGWFRIKFAWAAYGYR | -0.023 ± 0.72
79 | LKLYLYTLECTFDELDYGD | 0.161 ± 0.41
80 | NFKNRPSRLSRSNRSLFSTG | -0.887 ± 0.85
81 | CCDDIRTQDLALRAQIP | -0.21 ± 0.32
82 | IWMIAQDGFNFQLSNR | 0.282 ± 0.31
83 | AGYVWAKSSKDVKFYVLDM | 2.85 ± 0.17
84 | RQGLGAVVNENV | 0.137 ± 0.43
85 | IVQTHYN | -0.817 ± 1.7
86 | DINWYTLDAHV | -1.86 ± 1.9
87 | IMLQCYIVFCFRGRSLIRKA | -0.524 ± 0.36
88 | SDVWGWWGRSRVTADYFADV | -1.17 ± 1.7
89 | NSYFWSGEIIIEYQRP | -1.23 ± 0.65
90 | ISAMSVW | -0.031 ± 0.74
91 | VHTWYHCLSAEMSVMSILDL | -0.39 ± 1.7
92 | YKFYVTTLGFYDWCPFPVER | 0.831 ± 0.42
93 | RFHNRFLYLFKFIQAQINKC | 0.187 ± 0.41
94 | VTNYGYDLFVLILDGAMNLS | 0.407 ± 0.51
95 | HIENNSLKSDIVGRRGVRLS | -0.549 ± 0.64
96 | IKRKSAESNGCSLYLYDSLK | -0.189 ± 0.43
97 | YELAMECYVSWVLLYVA | 0.362 ± 0.32
98 | SWLDLNLIDHQAFAFSSFGQ | 0.183 ± 0.3
99 | HHHLNYTINIRQSYFVMCGG | 5 ± 0.071
100 | PWSPTVIRPVFSEKGQFSQL | -0.538 ± 0.59

Row | Substance | amyloid nucleation score
101 | DAYTGCIDNSVANAG | 0.481 ± 0.6
102 | LCDSPSKYNGPEYSMYVNLN | 1.51 ± 0.7
103 | IIIRCKSVVA | -0.656 ± 1.9
104 | SLVVVGCWLAANQESK | 1.28 ± 0.33
105 | LRIFSKLFTSSLYNCFEGIP | 0.143 ± 0.58
106 | HYMMADLGFWQYP | 0.138 ± 0.94
107 | RDDLNTTWFLGRSTLGLMLW | 0.168 ± 0.6
108 | VPRLLYQFLTSHTVVDSPEV | -0.069 ± 0.56
109 | GPRFNVALES | -0.347 ± 0.38
110 | FFRIACL | -0.704 ± 0.45
111 | TVKHC | 3.17 ± 0.14
112 | EPCCDVRVKGLYMFEYYVVC | 0.185 ± 1.1
113 | TSHPFLLQFMDDPFELSLAQ | -0.714 ± 0.48
114 | TMDDYPLDLHCWAGS | 0.767 ± 1
115 | LLRYITARETSLTQSQP | 0.298 ± 0.53
116 | ICVGGNGADCFKMTTGGQLC | -0.481 ± 0.5
117 | RFLSQNGNLIPGRRLPTGVR | 0.54 ± 0.54
118 | TVEGSRYFRSSLYHSARSHW | 1.14 ± 0.55
119 | WFLCSSRFISLLQ | -1.49 ± 0.47
120 | FTMYKCMCSMGRRNSAGGAS | -0.325 ± 0.98
121 | AVLRRYQFVYDLSYLYEDFL | -0.836 ± 0.48
122 | CMSSLLFD | 0.921 ± 0.49
123 | LYGFLICLCDSYVRGH | 0.213 ± 0.49
124 | VCFEVWSGHFSASLTM | 0.663 ± 0.44
125 | TVLVT | -0.461 ± 0.48

Row | Substance | amyloid nucleation score
126 | PLCHWKA | -0.325 ± 0.53
127 | SDAGARKIIFCFEIITQHPV | -0.235 ± 0.42
128 | LAAVQTDMFISTLLECLDDK | 1.08 ± 0.35
129 | FRGYHSSMSGNGDDNEKFGG | 0.24 ± 0.71
130 | LVISETWGSCFWNSVDSCAG | 0.815 ± 0.66
131 | YMQGDYM | inactive
132 | VHDENYDRFQGFVLDMLQAH | 0.641 ± 0.37
133 | VDYMERGYYAYIMVGICI | inactive
134 | DWQSVRKFLRSVVIRMVSLV | -0.399 ± 0.24
135 | LVSLRSIRSRRWCSRQFWSM | -0.111 ± 0.5
136 | NMDRVSFLR | -0.062 ± 0.6
137 | SWWVGTCFSGQWTVLGFP | 0.961 ± 0.69
138 | TVIRESIPKFWFYTLGMLKV | -0.6 ± 0.35
139 | GQTLALSYFTVLFSPMLNEW | 0.169 ± 1
140 | TVPIRTTTLSNGAFVWLI | inactive
141 | CIFTRKGIEVVCWLEGRMVP | 0.411 ± 1.2
142 | AGSLWFIWGLLSALN | -0.893 ± 0.92
143 | HVSLVHLRYCRICSLLSMWG | 2.77 ± 0.12
144 | FYTISFLAIIATENIFCSSS | 4.42 ± 0.053
145 | HVLKGGRAAFVELRGKSHGL | -0.081 ± 0.96
146 | RNELTVFGLISPWESVFNLG | inactive
147 | LRLPSRAFEGFRREAAWGST | 1.23 ± 0.76
148 | YEGGM | -0.334 ± 0.73
149 | CAVLLVIGTAANEMCARRLI | -0.197 ± 1.9
150 | VKVCMGLGYSGLMLGGLWDS | -0.491 ± 1.9

Row | Substance | amyloid nucleation score
151 | LDFNLICLYFLM | 5.37 ± 0.072
152 | EYGVGDKVIWDDMI | -0.151 ± 0.27
153 | PGYQTSWWYMLKCKTSSLNY | 0.468 ± 0.47
154 | GERGQFTILISYMALRDRLM | 2.45 ± 0.13
155 | FEKTIHFV | 0.43 ± 0.36
156 | NVTFEADLQLLCSRCSWFGT | 3.17 ± 0.061
157 | GSMSGTTDIPC | -0.158 ± 0.51
158 | QNLYVLDSYSLLNNFVSCII | -0.623 ± 0.35
159 | SHPMDKRLWEKSYKAVGVCV | 0.174 ± 0.58
160 | LRNVSFSDFVYWSGFFRGVV | inactive
161 | LDNRYFGHIMSLELMFIRPS | 1.19 ± 0.58
162 | NFGLPMYYFANDLESTDVVS | -0.115 ± 1.4
163 | YPLTSHYLLTR | 0.038 ± 0.64
164 | MISIS | 0.088 ± 0.26
165 | LAEGASTL | -0.217 ± 1.1
166 | LLYVRVHCLTAGFADSEASI | -0.168 ± 0.4
167 | GVDMRYFGPYAGYADYSKSR | -0.846 ± 0.44
168 | CLLIVRISNSKFVVPPTVFA | 0.608 ± 0.49
169 | VLESLAYFPGFNEWCGDMMS | 1.43 ± 0.42
170 | CMDKCVCERHPYL | -0.345 ± 1.7
